From patent US20160024159A1
Where “and” joins values, the source holds several entries; their conditions need not be identical. Equal entries are not always repeated.

How the values were obtained:
Assay in all cases: cell-based or functional assay
[1] = target: human voltage-gated sodium channel Nav1.3 (human) (UniProt Q9NY46)
[2] = target: human voltage-gated sodium channel Nav1.4 (human) (UniProt P35499)
[3] = target: human voltage-gated sodium channel Nav1.5 (human) (UniProt Q14524)
[4] = target: human voltage-gated sodium channel Nav1.7 (human) (UniProt Q15858)
[5] = target: TTX-resistant Nav channels in mouse DRG neurons
[6] = target: TTX-sensitive Nav channels in mouse DRG neurons
[7] = target: human Nav1.5 voltage-gated sodium channel (human) (UniProt Q14524)
[8] = target: human Nav1.7 voltage-gated sodium channel (human) (UniProt Q15858)
[9] = target: human Nav1.8 voltage-gated sodium channel (human) (UniProt Q9Y5Y9)
[10] = target: hNav1.7 channels in HEK293 cell (human) (UniProt Q15858)

human voltage-gated sodium channel Nav1.5 (human), sequence (Q14524 whole entry): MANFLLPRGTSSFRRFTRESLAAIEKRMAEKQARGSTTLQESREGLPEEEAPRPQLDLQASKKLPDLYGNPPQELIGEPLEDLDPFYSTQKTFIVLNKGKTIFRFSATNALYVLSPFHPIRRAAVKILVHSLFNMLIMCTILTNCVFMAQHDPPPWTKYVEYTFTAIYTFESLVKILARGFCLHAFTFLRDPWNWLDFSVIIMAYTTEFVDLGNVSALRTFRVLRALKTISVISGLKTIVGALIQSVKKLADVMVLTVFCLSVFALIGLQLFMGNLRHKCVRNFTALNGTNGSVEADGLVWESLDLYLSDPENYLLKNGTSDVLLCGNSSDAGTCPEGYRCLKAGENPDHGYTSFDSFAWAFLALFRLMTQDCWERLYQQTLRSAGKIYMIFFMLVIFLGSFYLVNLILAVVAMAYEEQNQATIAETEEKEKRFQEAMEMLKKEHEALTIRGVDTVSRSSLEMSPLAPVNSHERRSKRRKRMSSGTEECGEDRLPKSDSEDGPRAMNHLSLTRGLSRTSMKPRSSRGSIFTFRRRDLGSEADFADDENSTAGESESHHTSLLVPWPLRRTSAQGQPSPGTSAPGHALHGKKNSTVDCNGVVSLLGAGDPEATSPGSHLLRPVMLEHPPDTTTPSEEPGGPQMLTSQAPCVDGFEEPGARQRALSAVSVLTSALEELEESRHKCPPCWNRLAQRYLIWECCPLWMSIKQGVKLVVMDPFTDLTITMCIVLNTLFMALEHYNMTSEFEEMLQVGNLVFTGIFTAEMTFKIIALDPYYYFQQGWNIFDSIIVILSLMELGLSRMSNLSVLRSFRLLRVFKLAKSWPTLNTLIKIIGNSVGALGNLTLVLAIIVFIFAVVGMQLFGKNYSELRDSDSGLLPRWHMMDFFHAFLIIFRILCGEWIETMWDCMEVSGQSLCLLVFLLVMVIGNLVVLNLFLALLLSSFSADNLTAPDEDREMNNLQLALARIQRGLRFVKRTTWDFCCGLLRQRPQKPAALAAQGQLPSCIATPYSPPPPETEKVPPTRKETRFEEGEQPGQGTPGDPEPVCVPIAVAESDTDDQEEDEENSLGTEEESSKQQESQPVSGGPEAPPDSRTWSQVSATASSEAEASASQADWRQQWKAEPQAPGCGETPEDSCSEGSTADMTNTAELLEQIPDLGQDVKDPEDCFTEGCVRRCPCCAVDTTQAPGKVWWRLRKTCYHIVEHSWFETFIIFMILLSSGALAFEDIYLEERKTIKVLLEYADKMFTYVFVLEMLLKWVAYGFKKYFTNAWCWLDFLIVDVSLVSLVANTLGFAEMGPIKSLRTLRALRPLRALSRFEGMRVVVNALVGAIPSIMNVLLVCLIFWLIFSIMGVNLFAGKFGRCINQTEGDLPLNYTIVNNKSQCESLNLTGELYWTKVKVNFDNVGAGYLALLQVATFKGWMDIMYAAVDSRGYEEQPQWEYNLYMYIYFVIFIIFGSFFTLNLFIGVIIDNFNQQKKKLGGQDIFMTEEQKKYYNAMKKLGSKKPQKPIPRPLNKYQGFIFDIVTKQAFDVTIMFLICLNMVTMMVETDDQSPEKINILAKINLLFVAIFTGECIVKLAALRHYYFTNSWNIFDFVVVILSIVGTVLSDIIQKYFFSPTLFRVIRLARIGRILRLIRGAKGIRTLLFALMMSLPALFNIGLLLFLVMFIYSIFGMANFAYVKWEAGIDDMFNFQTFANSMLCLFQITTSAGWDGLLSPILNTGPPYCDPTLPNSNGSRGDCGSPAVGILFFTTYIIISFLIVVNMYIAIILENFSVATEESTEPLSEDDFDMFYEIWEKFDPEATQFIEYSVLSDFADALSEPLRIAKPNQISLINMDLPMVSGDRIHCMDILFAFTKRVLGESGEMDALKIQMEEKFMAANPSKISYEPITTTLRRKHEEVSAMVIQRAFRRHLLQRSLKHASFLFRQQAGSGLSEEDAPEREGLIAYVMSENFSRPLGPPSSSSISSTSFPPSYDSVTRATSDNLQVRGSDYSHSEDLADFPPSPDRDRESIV
human voltage-gated sodium channel Nav1.4 (human), sequence (P35499 whole entry): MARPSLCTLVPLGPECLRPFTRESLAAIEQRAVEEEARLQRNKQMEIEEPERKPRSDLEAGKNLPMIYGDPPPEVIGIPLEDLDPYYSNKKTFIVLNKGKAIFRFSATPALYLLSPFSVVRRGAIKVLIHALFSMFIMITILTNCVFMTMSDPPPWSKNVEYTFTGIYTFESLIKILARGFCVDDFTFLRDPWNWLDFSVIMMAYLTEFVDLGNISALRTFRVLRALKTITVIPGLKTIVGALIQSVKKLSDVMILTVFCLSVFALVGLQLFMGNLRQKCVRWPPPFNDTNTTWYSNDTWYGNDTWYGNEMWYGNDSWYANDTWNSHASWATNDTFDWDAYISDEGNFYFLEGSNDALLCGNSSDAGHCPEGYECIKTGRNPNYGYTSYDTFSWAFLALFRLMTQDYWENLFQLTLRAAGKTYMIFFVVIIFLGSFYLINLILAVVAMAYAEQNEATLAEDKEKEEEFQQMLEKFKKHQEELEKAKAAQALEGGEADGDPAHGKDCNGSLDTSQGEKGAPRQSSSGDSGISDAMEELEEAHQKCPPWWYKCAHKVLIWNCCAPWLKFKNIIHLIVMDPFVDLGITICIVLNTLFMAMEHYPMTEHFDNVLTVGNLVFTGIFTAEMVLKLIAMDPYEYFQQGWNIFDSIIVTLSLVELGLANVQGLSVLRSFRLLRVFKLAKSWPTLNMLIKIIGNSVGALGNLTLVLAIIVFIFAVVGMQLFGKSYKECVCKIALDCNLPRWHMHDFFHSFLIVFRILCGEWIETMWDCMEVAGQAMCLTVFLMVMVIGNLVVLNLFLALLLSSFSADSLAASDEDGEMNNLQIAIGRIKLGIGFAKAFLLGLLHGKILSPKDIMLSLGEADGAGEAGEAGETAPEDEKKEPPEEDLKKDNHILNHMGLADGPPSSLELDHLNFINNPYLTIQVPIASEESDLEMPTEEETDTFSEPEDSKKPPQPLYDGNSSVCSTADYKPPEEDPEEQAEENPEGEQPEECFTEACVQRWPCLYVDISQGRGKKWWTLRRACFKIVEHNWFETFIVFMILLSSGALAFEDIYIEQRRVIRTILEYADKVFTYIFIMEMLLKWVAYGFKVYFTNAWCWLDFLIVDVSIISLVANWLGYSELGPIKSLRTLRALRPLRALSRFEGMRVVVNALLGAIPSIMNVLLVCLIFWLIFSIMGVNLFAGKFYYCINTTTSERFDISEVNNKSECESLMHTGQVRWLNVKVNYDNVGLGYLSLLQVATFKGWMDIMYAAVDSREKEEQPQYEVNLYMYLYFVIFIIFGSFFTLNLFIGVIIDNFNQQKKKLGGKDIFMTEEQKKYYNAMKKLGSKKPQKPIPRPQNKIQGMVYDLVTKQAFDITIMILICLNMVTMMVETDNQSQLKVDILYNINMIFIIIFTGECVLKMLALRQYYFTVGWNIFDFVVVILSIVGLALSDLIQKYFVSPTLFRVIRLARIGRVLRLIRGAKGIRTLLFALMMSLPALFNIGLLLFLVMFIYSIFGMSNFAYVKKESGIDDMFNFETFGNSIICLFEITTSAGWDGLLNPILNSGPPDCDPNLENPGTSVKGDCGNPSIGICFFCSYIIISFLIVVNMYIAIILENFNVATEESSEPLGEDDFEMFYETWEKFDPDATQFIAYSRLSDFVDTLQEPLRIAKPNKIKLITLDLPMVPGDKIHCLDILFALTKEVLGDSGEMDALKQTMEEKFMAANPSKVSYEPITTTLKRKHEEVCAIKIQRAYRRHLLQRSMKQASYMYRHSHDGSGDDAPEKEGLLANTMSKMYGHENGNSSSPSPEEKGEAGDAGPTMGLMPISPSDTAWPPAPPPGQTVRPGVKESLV

| Substance | IC50 (IonWorks Quattro) [1] | IC50 (IonWorks Quattro) [2] [nM] | IC50 (IonWorks Quattro) [3] | IC50 (IonWorks Quattro) [4] | also measured |
| --- | --- | --- | --- | --- | --- |
| JzTx-45 (peptide) | 1800 nM | 2400 | > 5000 nM | 84 nM |  |
| JzTx-46 (peptide) | 5000 nM | > 5000 | > 5000 nM | 330 nM |  |
| JzTx-V(1-29) (peptide) | 80 nM and 100 nM |  | 3000 nM and 3500 nM | 5 nM and 6 nM | WCPC Mean IC50, fully non-inactivated [5]: > 1000 nM; WCPC Mean IC50, partially inactivated [5]: > 1000 nM; WCPC Mean IC50, fully non-inactivated [6]: 75 nM; WCPC Mean IC50, partially inactivated [6]: 18 nM; WCPC Mean IC50, fully non-inactivated [7]: 882 nM; WCPC Mean IC50, partially inactivated [7]: 426 nM; WCPC Mean IC50, fully non-inactivated [8]: 0.141 nM; WCPC Mean IC50, partially inactivated [8]: 0.162 nM; WCPC Mean IC50, fully non-inactivated [9]: 810 nM; WCPC Mean IC50, partially inactivated [9]: 530 nM; IC50, IonWorks Quattro electrophysiology [2]: 0.2 µM; IC50, IonWorks Quattro electrophysiology [3]: > 7 µM; IC50, IonWorks Quattro electrophysiology [4]: 0.04 µM |
| JzTx-V(1-29)-FreeAcid (peptide) | 780 nM | 610 | > 5000 nM | 170 nM | PX hNav1.7 Tonic IC50 [4]: 13.1 nM |
| [Phe6,Atz(2 kDa EtO-PEG*-[Phe6,Atz13*]GpTx-1(1-34)1)13]GpTx-1(1-34) |  |  |  |  | Nav1.7 WCPC IC50 [10]: 0.58 nM |
